Assay [1] has as its target soluble form of recombinant mouse CD16 (sCD16) (mouse). Kind of assay: ELISA. In general terms: An ELISA detects its analyte on a solid surface through an enzyme-linked reagent.
Assay [2] shares this target. Description: SPR. On the technique in general: In SPR one partner is held on a chip, and binding of the other changes the refractive index at the surface.

Usually Kd stands for the equilibrium constant for the complex coming apart.

As for “OVA-IC (soluble immune complex of OVA and rabbit anti-OVA IgG) (from UniProt P01012 1-386)”, the dissociation constant Kd in assay [1] came out at 0.09 µM. For “malondialdehyde-modified low-density lipoprotein (MDALDL)”, the dissociation constant Kd in assay [2] worked out at 25 µM.

On to “peroxidase/anti-peroxidase immune complex (PAP-IC)”, for which the dissociation constant Kd in assay [2] is 0.078 µM.

The values are drawn from paper PMC4135013.
